Laboratory results as given in the supplement of paper PMC9112550, “Optimization of the antimicrobial peptide Bac7 by deep mutational scanning” (BMC Biology, 2022).

Test system: Escherichia coli TOP10
Test: shrunken log2 fold change of peptide-encoding DNA abundance (4.5 h post-induction vs induction); higher = less antimicrobial activity (less host growth inhibition)
Conditions: time post-induction: 4.5 h; library: site-saturation at positions 5, 18, 19, 20
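Further: peptides expressed intracellularly from a pBAD plasmid library in pooled LB shake-flask culture, induced with 0.3% L-arabinose, DNA abundance read by NGS, three biological replicates, DESeq2 with apeglm shrinkage.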

| Sequence | shrunken log2 fold change |
| --- | --- |
| RRIRERPPRLPRPRPRPHAHPRP | -0.0467 |
| RRIRCRPPRLPRPRPRPSASPRP | 0.165 |
| RRIRWRPPRLPRPRPRPREAPRP | 0.185 |
| RRIRMRPPRLPRPRPRPSMMPRP | 0.0163 |
| RRIRWRPPRLPRPRPRPDHNPRP | -0.302 |
| RRIRRRPPRLPRPRPRPWSNPRP | -0.226 |
| RRIRARPPRLPRPRPRPAQIPRP | -0.0241 |
| RRIRDRPPRLPRPRPRPKHIPRP | -0.236 |
| RRIRSRPPRLPRPRPRPQCTPRP | 0.294 |
| RRIRTRPPRLPRPRPRPWAQPRP | 0.0456 |
| RRIRVRPPRLPRPRPRPDIKPRP | -0.912 |
| RRIRHRPPRLPRPRPRPHEDPRP | 0.0316 |
| RRIRARPPRLPRPRPRPTLMPRP | 0.768 |
| RRIRVRPPRLPRPRPRPSLNPRP | -0.416 |
| RRIRKRPPRLPRPRPRPIIGPRP | 0.00654 |
| RRIRLRPPRLPRPRPRPNPPPRP | 0.0837 |
| RRIRHRPPRLPRPRPRPILNPRP | -0.186 |
| RRIRPRPPRLPRPRPRPDAYPRP | -0.334 |
| RRIRSRPPRLPRPRPRPHEFPRP | -0.315 |
| RRIRLRPPRLPRPRPRPWTVPRP | -0.176 |
| RRIRNRPPRLPRPRPRPWRGPRP | 0.226 |
| RRIRFRPPRLPRPRPRPNPCPRP | -0.349 |
| RRIRQRPPRLPRPRPRPDMEPRP | 0.104 |
| RRIRPRPPRLPRPRPRPKEYPRP | -0.356 |
| RRIRGRPPRLPRPRPRPNQNPRP | 0.4 |

| Sequence | shrunken log2 fold change |
| --- | --- |
| RRIRDRPPRLPRPRPRPQGHPRP | -0.0748 |
| RRIRERPPRLPRPRPRPWYYPRP | 0.0432 |
| RRIRTRPPRLPRPRPRPTSDPRP | 0.0524 |
| RRIRRRPPRLPRPRPRPNHFPRP | -0.0507 |
| RRIRMRPPRLPRPRPRPSDSPRP | 0.0495 |
| RRIRHRPPRLPRPRPRPGNFPRP | -0.537 |
| RRIRGRPPRLPRPRPRPRLDPRP | 0.692 |
| RRIRGRPPRLPRPRPRPDELPRP | 0.955 |
| RRIRTRPPRLPRPRPRPWFWPRP | 0.0569 |
| RRIRHRPPRLPRPRPRPWCSPRP | -0.348 |
| RRIRCRPPRLPRPRPRPRGDPRP | 0.867 |
| RRIRGRPPRLPRPRPRPFNTPRP | -0.309 |
| RRIRERPPRLPRPRPRPRFQPRP | 0.2 |
| RRIRPRPPRLPRPRPRPWEFPRP | -0.0818 |
| RRIRWRPPRLPRPRPRPFDSPRP | -0.124 |
| RRIRSRPPRLPRPRPRPHICPRP | -0.127 |
| RRIRPRPPRLPRPRPRPHGMPRP | -0.531 |
| RRIRVRPPRLPRPRPRPKFSPRP | 0.0178 |
| RRIRKRPPRLPRPRPRPGTPPRP | 0.824 |
| RRIRYRPPRLPRPRPRPPDRPRP | 0.118 |
| RRIRKRPPRLPRPRPRPAMMPRP | 1.24 |
| RRIRARPPRLPRPRPRPSDAPRP | 0.396 |
| RRIRIRPPRLPRPRPRPIDCPRP | -0.145 |
| RRIRKRPPRLPRPRPRPVQHPRP | 0.134 |
| RRIRWRPPRLPRPRPRPYSGPRP | -0.105 |

| Sequence | shrunken log2 fold change |
| --- | --- |
| RRIRWRPPRLPRPRPRPWKPPRP | -0.732 |
| RRIRFRPPRLPRPRPRPPSQPRP | -0.0751 |
| RRIRQRPPRLPRPRPRPKLEPRP | 0.563 |
| RRIRYRPPRLPRPRPRPRSMPRP | -0.622 |
| RRIRFRPPRLPRPRPRPYRYPRP | 0.0548 |
| RRIRWRPPRLPRPRPRPHPQPRP | 0.309 |
| RRIRIRPPRLPRPRPRPTIWPRP | -0.157 |
| RRIRKRPPRLPRPRPRPTAQPRP | 1.88 |
| RRIRLRPPRLPRPRPRPIAPPRP | 0.372 |
| RRIRGRPPRLPRPRPRPCCEPRP | 0.528 |
| RRIRKRPPRLPRPRPRPNAGPRP | -0.00783 |
| RRIRQRPPRLPRPRPRPAEHPRP | 0.166 |
| RRIRDRPPRLPRPRPRPQWFPRP | 0.0117 |
| RRIRQRPPRLPRPRPRPEIFPRP | 0.127 |
| RRIRHRPPRLPRPRPRPMIIPRP | -0.205 |
| RRIRTRPPRLPRPRPRPLWFPRP | -0.489 |
| RRIRARPPRLPRPRPRPPEWPRP | 0.734 |
| RRIRQRPPRLPRPRPRPKMTPRP | 0.00734 |
| RRIRCRPPRLPRPRPRPDDRPRP | -0.0204 |
| RRIRMRPPRLPRPRPRPLNKPRP | 0.118 |
| RRIRSRPPRLPRPRPRPQQVPRP | 0.0131 |
| RRIRMRPPRLPRPRPRPNWGPRP | 0.448 |
| RRIRWRPPRLPRPRPRPKSLPRP | -0.0933 |
| RRIRRRPPRLPRPRPRPENWPRP | 0.153 |
| RRIRTRPPRLPRPRPRPPCFPRP | 0.153 |

| Sequence | shrunken log2 fold change |
| --- | --- |
| RRIRSRPPRLPRPRPRPIMKPRP | -0.292 |
| RRIRHRPPRLPRPRPRPGAVPRP | 0.433 |
| RRIRERPPRLPRPRPRPMEGPRP | 0.00131 |
| RRIRMRPPRLPRPRPRPTNDPRP | 0.231 |
| RRIRGRPPRLPRPRPRPWCVPRP | 0.121 |
| RRIRFRPPRLPRPRPRPCDTPRP | -0.09 |
| RRIRIRPPRLPRPRPRPLCLPRP | -0.736 |
| RRIRDRPPRLPRPRPRPAPPPRP | 0.71 |
| RRIRHRPPRLPRPRPRPDNYPRP | -0.0274 |
| RRIRVRPPRLPRPRPRPEIVPRP | -0.0567 |
| RRIRPRPPRLPRPRPRPFPHPRP | -0.129 |
| RRIRNRPPRLPRPRPRPWWLPRP | -0.106 |
| RRIRCRPPRLPRPRPRPINLPRP | -0.355 |
| RRIRNRPPRLPRPRPRPRDGPRP | 0.292 |
| RRIRLRPPRLPRPRPRPFCRPRP | 0.0702 |
| RRIRKRPPRLPRPRPRPWNLPRP | -0.109 |
| RRIRMRPPRLPRPRPRPGHNPRP | 0.231 |
| RRIRRRPPRLPRPRPRPGGPPRP | 0.321 |
| RRIRMRPPRLPRPRPRPLVYPRP | 0.19 |
| RRIRWRPPRLPRPRPRPYWIPRP | -0.81 |
| RRIRGRPPRLPRPRPRPFKMPRP | 0.143 |
| RRIRYRPPRLPRPRPRPDEYPRP | -0.0128 |
| RRIRDRPPRLPRPRPRPFDMPRP | 0.0213 |
| RRIRCRPPRLPRPRPRPLCMPRP | -0.0162 |
| RRIRKRPPRLPRPRPRPNNVPRP | 0.0112 |

| Sequence | shrunken log2 fold change |
| --- | --- |
| RRIRYRPPRLPRPRPRPKGEPRP | -0.212 |
| RRIRLRPPRLPRPRPRPVHKPRP | -0.256 |
| RRIRARPPRLPRPRPRPNLDPRP | -0.152 |
| RRIRGRPPRLPRPRPRPEDRPRP | 0.23 |
| RRIRPRPPRLPRPRPRPHDYPRP | -0.0318 |
| RRIRHRPPRLPRPRPRPECMPRP | -0.0379 |
| RRIRVRPPRLPRPRPRPGMMPRP | 0.135 |
| RRIRWRPPRLPRPRPRPGSGPRP | 0.497 |
| RRIRKRPPRLPRPRPRPIGFPRP | -0.00176 |
| RRIRQRPPRLPRPRPRPVCIPRP | -0.39 |
| RRIRWRPPRLPRPRPRPNKQPRP | 0.103 |
| RRIRMRPPRLPRPRPRPNKTPRP | -0.0156 |
| RRIRTRPPRLPRPRPRPQQCPRP | -0.0115 |
| RRIRTRPPRLPRPRPRPILTPRP | -0.139 |
| RRIRNRPPRLPRPRPRPEDFPRP | 0.0401 |
| RRIRMRPPRLPRPRPRPIYTPRP | -0.257 |
| RRIRDRPPRLPRPRPRPMGPPRP | -0.00107 |
| RRIRFRPPRLPRPRPRPQNQPRP | -0.485 |
| RRIRPRPPRLPRPRPRPVPYPRP | -0.253 |
| RRIRLRPPRLPRPRPRPNRCPRP | -0.231 |
| RRIRERPPRLPRPRPRPHLDPRP | 0.000475 |
| RRIRGRPPRLPRPRPRPQKIPRP | 0.274 |
| RRIRSRPPRLPRPRPRPIQGPRP | -0.127 |
| RRIRPRPPRLPRPRPRPYVKPRP | -0.172 |
| RRIRIRPPRLPRPRPRPCGIPRP | -0.222 |

| Sequence | shrunken log2 fold change |
| --- | --- |
| RRIRGRPPRLPRPRPRPEFIPRP | 0.131 |
| RRIRGRPPRLPRPRPRPLLHPRP | 0.762 |
| RRIRDRPPRLPRPRPRPGQDPRP | 0.945 |
| RRIRVRPPRLPRPRPRPDKHPRP | -0.108 |
| RRIRLRPPRLPRPRPRPAAGPRP | 0.312 |
| RRIRERPPRLPRPRPRPRAMPRP | 0.0549 |
| RRIRHRPPRLPRPRPRPETAPRP | 0.346 |
| RRIRWRPPRLPRPRPRPLHKPRP | 0.0164 |
| RRIRVRPPRLPRPRPRPHDCPRP | -0.162 |
| RRIRLRPPRLPRPRPRPGEWPRP | -0.00947 |
| RRIRWRPPRLPRPRPRPRNFPRP | 0.0292 |
| RRIRVRPPRLPRPRPRPFMYPRP | -0.642 |
| RRIRGRPPRLPRPRPRPMICPRP | 0.166 |
| RRIRRRPPRLPRPRPRPASWPRP | 0.337 |
| RRIRPRPPRLPRPRPRPECEPRP | 0.291 |
| RRIRNRPPRLPRPRPRPWNCPRP | -0.0415 |
| RRIRTRPPRLPRPRPRPWEHPRP | -0.069 |
| RRIRGRPPRLPRPRPRPSGRPRP | 0.522 |
| RRIRVRPPRLPRPRPRPEDFPRP | 0.0252 |
| RRIRCRPPRLPRPRPRPRTEPRP | 0.0022 |
| RRIRPRPPRLPRPRPRPCPWPRP | 0.889 |
| RRIRNRPPRLPRPRPRPNFTPRP | -0.197 |
| RRIRARPPRLPRPRPRPEKMPRP | 0.706 |
| RRIRCRPPRLPRPRPRPHPKPRP | -0.102 |
| RRIRGRPPRLPRPRPRPWCCPRP | 0.0685 |
